Test results taken from patent publication US20230203142A1, “TREATMENT OF METABOLIC DISORDERS THROUGH THE TARGETING OF A NOVEL CIRCULATING HORMONE COMPLEX” (The President and Fellows of Harvard College, priority 2020, published 2023).

Tests used:
FABP4 = FABP4 (Homo sapiens, UniProt P15090); test: Antibody binding affinity for FABP4; conditions: compared to traditional therapeutic antibodies
NOD mice = test: a-Ab treatment in NOD model of T1D; format: in vivo, mouse
Description: WT female NOD mice matched for age, weight, blood glucose, plasma insulin, and circulating FABP4 levels were utilized to explore the effect of antibody-mediated FABP4 targeting in the context of T1D, (FIGS. 2D-G). Mice were treated twice weekly with a-Ab, PBS, or a control antibody of the same isotype (c-Ab) starting at 10 weeks of age, when insulitis had already been established. […] Collectively, a-Ab-mediated protection against T1D and improvement of glycemic control in a DIO model of T2D are both associated with improved beta cell mass and function.
To investigate the contribution of proliferation to the increase in beta cell mass, NOD mice were treated with BrdU along with a-Ab, c-Ab, or PBS for 5 weeks beginning at 10 weeks of age. […] This difference is likely associated with the pro-proliferative environment of DIO as compared to the NOD model. […] Thus, targeting the FABP4-ADK-NDPK complex with a-Ab preserves beta cell mass and enhances beta cell function to protect against diabetes.
Pancreata were dissected and fixed in 10% zinc buffered formalin for 24-48 hrs before being washed and stored in 70% ethanol. Samples were paraffin embedded, and sectioned in steps 250 μm apart. Immunostaining for insulin, glucagon, BrdU and Cleaved Caspase 3 was performed as described previously (Prentice et al., 2014; Rezania et al., 2014). Images of each section were acquired using Aperio Imagescope at 20× magnification. The beta- or alpha-cell area was calculated by using positive pixel count analysis (Aperio ImageScope). Islet number and size was determined by manually circling insulin positive clusters in the Aperio ImageScope software. Two blinded individuals independently performed manual analysis and insulitis scoring.

non-diabetic NOD mice = test: Immune phenotyping (FACS) of tissues of treated NOD mice; format: in vivo, mouse; conditions: mean
Description: To perform immune phenotyping, mice were euthanized with CO2 and cardiac perfusion performed with 40 ml of sterile PBS. Whole pancreas, pancreatic lymph nodes (PLN), inguinal lymph nodes (ILN), and spleen were harvested, diced into 1 mm pieces, placed in digestion buffer (RPMI 1640, lmg/ml Collagenase Type IV, 10 U/ml DNAsel, and 1% BSA), and incubated at 37° C. for 20 min shaking at 250 rpm. Pancreas samples were filtered through a 40 μm nylon strainer into a fresh 50 ml tube, and fresh media added up to 40 ml (RPMI 1640, 1% FBS, 1% Sodium Pyruvate, 1.56 ul β-mercaptoethanol). Tubes were then centrifuged at 1500 rpm for 10 min, supernatant removed, and cells resuspended in 2 ml fresh media. Resuspended cells were passed through a 40 μm nylon filter into a 15 ml round-bottomed polystyrene tube. For PLN, ILN, and spleen, digestion samples were filtered through a 40 μm nylon strainer into a 15 ml round bottom polystyrene tube, and lml of media was added. Spleen samples had supernatant removed, and lml ACK lysis buffer (Thermo Scientific A1049201) added for 2 min at room temperature. Samples were then centrifuged at 1500 rpm for 5 min, and resuspended in 1 ml media. All samples were centrifuged at 1500 rpm for 5 min, supernatant removed, and cells resuspended in FACS buffer (5% BSA in cold PBS; 0.5 ml for PLN and ILN, lml for pancreas and spleen). Staining and FACS analysis were performed as previously described (Engin et al., 2013).

INS1 cells [1] = test: ER stress and cell death markers (Western blot, QPCR); format: cell-based, rat; conditions: combined stimulation with complex and ER stress-inducer Tg
Text: The purinergic P2Y receptors activate two downstream signaling pathways; phospholipase C (PLC), which promotes the generation of IP3, as well as inhibition of cAMP generation through the activation of G proteins (Sabala et al., 2001; Seo et al., 2016). These pathways directly influence calcium flux, which regulates both insulin secretion and survival. To elucidate how the NDPK-ADK/FABP4 complex influences beta cell function to promote diabetes, the intracellular effects mediated by this complex were examined using western blotting and quantitative PCR. Western blotting and quantitative PCR (QPCR) were performed as previously described (Prentice et al., 2018). […] Protein content was evaluated by BCA (Invitrogen, USA). […]
ER calcium homeostasis is essential for a variety of processes and reduced ER calcium can induce ER stress through the accumulation or inappropriate secretion of misprocessed or misfolded proteins (Engin et al., 2014; Engin et al., 2013). […] Cells were treated for 2 hours with increasing doses of Thapsigargin or 18 hours with increasing doses of cytokines (1=TNFα (Peprotech #315-05-20 ug) […], IFNγ (Peprotech #315-01A-20 ug) 100 ng/ml, IL-1β (R&D Systems #401-ML-005) 5 ng/ml), washed with PBS, and cleaved caspase 3/7 activity was determined using the Promega Caspase-Glo 3/7 Assay System, according to manufacturer's instructions.

INS1 cells [2] = system: INS1 cells
Description: (§1) Cells were pre-treated with P2Y1 activator (0.5 nM; MRS2365 Tocris #2157) during the pre-incubation period. Cells were stimulated with ATP (5 μM; Promega #V915A) or ADP (2.5 μM; Promega #V916A) acutely with the addition of LG and HG KRB during the serial stimulation. Cells were treated with 100 ng/ml recombinant human FABP4 (produced in-house), 200 ng/ml recombinant human ADK (Novus Biologicals, product number NBP1-44382 or R&D Systems, product number 8024-AK-025), or 100 ng/ml recombinant human NDPK-A (Acro Biosystems, product number NM1-H5147) where indicated, for the pre-incubation period, as well as during the glucose stimulation.
(§2) Briefly, INS1 cells were plated in imaging disks at 5000 cells/dish and cultured in standard media overnight. Cells were washed with PBS, and incubated in imaging buffer without glucose, with or without calcium containing Fura-2 AM (2 mM; ThermoFisher F1201) for 30 minutes at 37° C. Cells were washed twice with fresh PBS, and placed in lml imaging buffer. Calcium flux was evaluated with the addition of 20 mM glucose, 30 mM KCl, or 1 μM Thapsigargin. Extracellular calcium was added at 1.5 mM. Calcium flux measurements were performed using an epifluorescence system coupled to a Ti-S/L100 inverted microscope L100 with fluorescent light source (X-Cite 120LED System) equipped with Lambda DG-4 Plus for UV ratiometric probes. Excitations at 340 nm and 380 nm were used and an emission of 510 nm. Analysis was performed using ImageJ software. Calcium flux was measured from 50 cells per coverslip.

INS1 cells [3] = test: Cytosolic calcium flux, Fura-2 AM imaging; conditions: 20 mM glucose
Description: as §1, §2

[4] = among the mice that developed diabetes

Sequence of FABP4 (P15090 whole entry): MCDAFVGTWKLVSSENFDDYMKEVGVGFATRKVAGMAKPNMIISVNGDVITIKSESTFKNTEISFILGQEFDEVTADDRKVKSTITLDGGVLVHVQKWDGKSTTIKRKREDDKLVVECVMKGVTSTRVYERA

B1: a-Ab: monoclonal antibody previously reported as CA33; heavy chain SEQ ID NO 446, light chain SEQ ID NO 447; binds FABP4 and NDPK (antibody, listed as Homo sapiens)
heavy: QSVEESGGRLVTPGTPLTLTCTVSGFSLSTYYMSWVRQAPGKGLEWIGIIYPSGSTYCASWAKGRFTISKASTTVDLKITSPTTEDTATYFCARPDNDGTSGYLSGFGLWGQGLVTVSSAKTTPPSVYPLAPGSAAQTNSMVTLGCLVKGYFPEPVTVTWNSGSLSSGVHTFPAVLQSDLYTLSSSVTVPSSTWPSETVTCNVAHPASSTKVDKKIVPRDC
light: DVVMTQTPASVSEPVGGTVTIKCGASEDISRYLVWYQQKPGQPPKRLIYKASTLASGVPSRFKGSGSGTDFTLTISDLECDDAATYYCQCTYGTYAGSFFYSFGGGTEVVVERTDAAPTVSIFPPSSEQLTSGGASVVCFLNNFYPKDINVKWKIDGSERQNGVLNSWTDQDSKDCTYSMSSTLTLTKDEYERHNSYTCEATHKTSTSPIVKSFNRNEC
FABP4
  binding affinity for recombinant FABP4: relatively weak binding affinity
NOD mice; NOD mice, 5 weeks, compared to c-Ab
  overall number of BrdU positive beta cells: no significant difference
NOD mice; NOD mice, compared to c-Ab-treated controls
  islet number and beta cell mass: significant increase
NOD mice; NOD model, vs controls
  CC3 positive beta cells: profound reduction
NOD mice; [4]
  blood glucose: significantly reduced
  plasma insulin levels: higher
NOD mice; among the non-diabetic mice, throughout the study
  body weight, plasma insulin, or blood glucose levels: no significant differences
NOD mice; female NOD mice, twice weekly from 10 weeks of age
  development of T1D: significantly protected
NOD mice; non-diabetic NOD mice
  GSIS both in vivo and ex vivo: improved
  glycemic control during GTT: improved
NOD mice; pancreatic sections, NOD mice
  glucagon positive area: significant reduction
non-diabetic NOD mice; inguinal lymph nodes
  ILN Cytotoxic T-Cells: 21.4%
non-diabetic NOD mice
  Spleen Cytotoxic T-Cells: 11.5%
non-diabetic NOD mice; pancreatic lymph nodes
  PLN Cytotoxic T-Cells: 15.7%
INS1 cells [1]
  ER stress markers Chop and Bip (Grp78): rescued
INS1 cells [2]
  ER calcium efflux: rescue
INS1 cells [3]
  extracellular calcium influx in response to glucose: rescue
